Assay results from paper PMC2796841 (Integrative biology : quantitative biosciences from nano to …, 2009).

Test system: tumor
Conditions: mouse, in vivo

PAMAM-e9-xPLGLAG-r9-k(Cy5)
time of maximal contrast after injection: 48 h
